Experimental data: US20140072613A1 (published 2014)

T1: NEK3(h) (human, UniProt P51956 1-506, limits assumed)
T1 sequence (looked up): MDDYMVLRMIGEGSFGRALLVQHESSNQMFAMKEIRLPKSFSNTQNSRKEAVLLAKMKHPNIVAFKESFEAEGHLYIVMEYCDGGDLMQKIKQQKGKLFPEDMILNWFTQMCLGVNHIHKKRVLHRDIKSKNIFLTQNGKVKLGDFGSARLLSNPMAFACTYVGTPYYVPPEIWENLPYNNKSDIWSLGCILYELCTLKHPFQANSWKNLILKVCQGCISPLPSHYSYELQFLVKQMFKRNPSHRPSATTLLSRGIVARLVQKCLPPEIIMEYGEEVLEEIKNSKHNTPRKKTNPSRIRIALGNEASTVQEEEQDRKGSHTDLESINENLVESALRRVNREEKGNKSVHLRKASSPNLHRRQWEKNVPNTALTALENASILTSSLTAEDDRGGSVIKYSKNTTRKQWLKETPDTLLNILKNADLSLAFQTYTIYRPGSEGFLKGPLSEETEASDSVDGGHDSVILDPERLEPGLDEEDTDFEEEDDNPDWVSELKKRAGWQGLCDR

T2: TBK1(h) (human, UniProt Q9UHD2 1-729)
T2 sequence (looked up): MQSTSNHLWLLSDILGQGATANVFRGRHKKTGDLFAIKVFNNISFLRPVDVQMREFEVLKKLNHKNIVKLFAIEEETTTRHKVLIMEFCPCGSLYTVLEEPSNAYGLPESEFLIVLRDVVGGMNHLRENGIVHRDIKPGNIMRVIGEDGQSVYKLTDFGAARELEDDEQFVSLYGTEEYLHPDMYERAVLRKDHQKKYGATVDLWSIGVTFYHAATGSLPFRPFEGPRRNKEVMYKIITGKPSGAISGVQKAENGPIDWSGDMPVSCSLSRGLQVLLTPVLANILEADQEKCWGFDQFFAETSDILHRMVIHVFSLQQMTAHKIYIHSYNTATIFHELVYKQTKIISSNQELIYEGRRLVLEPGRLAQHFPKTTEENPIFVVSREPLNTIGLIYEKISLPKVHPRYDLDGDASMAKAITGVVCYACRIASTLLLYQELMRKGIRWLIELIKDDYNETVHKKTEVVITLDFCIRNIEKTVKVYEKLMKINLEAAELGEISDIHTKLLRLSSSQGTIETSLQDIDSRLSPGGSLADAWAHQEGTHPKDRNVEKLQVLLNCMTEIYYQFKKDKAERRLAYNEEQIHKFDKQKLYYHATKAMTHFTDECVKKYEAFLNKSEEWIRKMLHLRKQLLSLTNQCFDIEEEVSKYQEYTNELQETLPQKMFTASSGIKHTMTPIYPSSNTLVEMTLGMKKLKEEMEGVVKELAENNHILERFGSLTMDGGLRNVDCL

T3: DDR2(h) (human, UniProt Q16832 422-855, limits assumed)
T3 sequence (looked up): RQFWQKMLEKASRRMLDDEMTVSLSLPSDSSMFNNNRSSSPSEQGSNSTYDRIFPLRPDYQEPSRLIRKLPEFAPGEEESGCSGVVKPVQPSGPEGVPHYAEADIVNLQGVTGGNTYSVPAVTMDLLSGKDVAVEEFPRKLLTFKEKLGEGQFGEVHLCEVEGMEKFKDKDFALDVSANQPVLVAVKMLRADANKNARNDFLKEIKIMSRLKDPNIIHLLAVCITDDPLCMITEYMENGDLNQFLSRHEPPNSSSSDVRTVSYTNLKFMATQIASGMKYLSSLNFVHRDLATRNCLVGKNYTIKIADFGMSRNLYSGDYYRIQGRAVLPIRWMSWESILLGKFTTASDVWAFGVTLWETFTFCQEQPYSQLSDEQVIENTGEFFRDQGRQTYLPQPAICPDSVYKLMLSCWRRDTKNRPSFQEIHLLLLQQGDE


How the values were obtained:
Experiment in all cases: cell-based or functional assay
HIPK1(h) = HIPK1(h) (human, UniProt Q86Z02 158-555, limits assumed)
Met(D1246N)(h) = Met(D1246N)(h) (human, UniProt P08581-2 974-1408, limits assumed)
NEK3(h) = target: T1, NEK3(h)
Plk3(h) = Plk3(h) (human, UniProt Q9H4B4 58-340, limits assumed)
TBK1(h) = target: T2, TBK1(h)
CDK2/cyclinA(h) = CDK2/cyclinA(h) (human, UniProt P24941 1-298; P20248 1-432)
CDK5/p35(h) = CDK5/p35(h) (human, UniProt Q00535 1-292; Q15078 1-307)
CK1γ3(h) = CK1γ3(h) (human, UniProt Q9Y6M4 1-447)
cKit(h) = cKit(h) (human, UniProt P10721 544-976)
DDR2(h) = target: T3, DDR2(h)
EGFR(T790M,L858R)(h) = EGFR(T790M,L858R)(h) (human, UniProt P00533 696-1210, limits assumed)
Fer(h) = Fer(h) (human, UniProt P16591 541-822, limits assumed)

Binder | % activity, 100 µM (HIPK1(h)) [%] | % activity, 100 µM (Met(D1246N)(h)) [%] | % activity, 100 µM (NEK3(h)) [%] | % activity, 100 µM (Plk3(h)) [%] | % activity, 100 µM (TBK1(h)) [%] | % activity, 100 µM (CDK2/cyclinA(h)) [%] | % activity, 100 µM (CDK5/p35(h)) [%] | % activity, 100 µM (CK1γ3(h)) [%] | % activity, 100 µM (cKit(h)) [%] | % activity, 100 µM (DDR2(h)) [%] | % activity, 100 µM (EGFR(T790M,L858R)(h)) [%] | % activity, 100 µM (Fer(h)) [%]
FAKLAARLYRKALARQLGVAA [MMI-0300] | 74 | 82 | 92 | 127 | 37 | 86 | 79 | 125 | 53 | 94 | 85 | 130
KAFAKLAARLYRKALARQLGVAA [MMI-0400] | 91 | 31 | 85 | 129 | 39 | 92 | 76 | 115 | 43 | 95 | 78 | 108
